Laboratory results published in US20230122079A1.

Key:
[1] = molecular target: recombinant IL12 (Peprotech) (human) (UniProt P29460); test: SPR; SPR binding to immobilized IL12; kinetics post-digest with Matriptase; ka near instrument detection limit
[2] = molecular target: recombinant IL12 (Peprotech) (human) (UniProt P29460); test: SPR; SPR binding to immobilized IL12; kinetics post-digest with Matriptase

recombinant IL12 (Peprotech) (human), sequence (P29460 23-328 limits assumed, chain 1 of 2): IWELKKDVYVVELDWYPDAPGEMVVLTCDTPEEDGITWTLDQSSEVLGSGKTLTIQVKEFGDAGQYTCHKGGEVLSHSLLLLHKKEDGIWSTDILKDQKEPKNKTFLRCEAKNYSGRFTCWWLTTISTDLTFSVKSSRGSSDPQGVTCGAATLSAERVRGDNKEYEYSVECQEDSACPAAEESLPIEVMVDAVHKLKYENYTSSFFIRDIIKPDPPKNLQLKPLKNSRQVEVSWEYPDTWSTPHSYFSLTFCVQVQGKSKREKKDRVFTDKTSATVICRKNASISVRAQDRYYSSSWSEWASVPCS
recombinant IL12 (Peprotech) (human), sequence (chain, as listed by the source limits assumed, chain 2 of 2): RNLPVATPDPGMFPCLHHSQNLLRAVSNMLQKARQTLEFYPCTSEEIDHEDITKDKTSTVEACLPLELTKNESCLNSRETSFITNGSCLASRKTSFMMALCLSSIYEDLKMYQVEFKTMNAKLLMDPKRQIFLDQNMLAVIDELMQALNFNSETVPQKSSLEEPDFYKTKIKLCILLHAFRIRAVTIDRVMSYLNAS

| kon [1] [M⁻¹ s⁻¹] | Kd [2] [pM] | koff [2] [s⁻¹] | Binder |
| --- | --- | --- | --- |
| 8.65e+06 | 5.37 | 4.68e-05 | v32910 digested with Matriptase (Fc fusion) SANAGGGGSGGGGSQVQLVESGGGVVQPGRSLRLSCAASGFTFSSYGMHWVRQAPGKGLEWVAFIRYDGSNKYYADSVKGRFTISRDNSKNTLYLQMNSLRAEDTAVYYCKTHGSHDNWGQGTMVTVSSGGGGSGGGSGGGSGGGGSGGGGSQSVLTQPPSVSGAPGQRVTISCSGSRSNIGSNTVKWYQQLPGTAPKLLIYYNDQRPSGVPDRFSGSKSGTSASLAITGLQAEDEADYYCQSYDRYTHPALLFGTGTKVTVL |
| 4.19e+07 | 1.47 | 6.48e-05 | v32909 digested with Matriptase (Fc fusion) chain 1: SANAGGGGSGGGGSQVQLVESGGGVVQPGRSLRLSCAASGFTFSSYGMHWVRQAPGKGLEWVAFIRYDGSNKYYADSVKGRFTISRDNSKNTLYLQMNSLRAEDTAVYYCKTHGSHDNWGQGTMVTVSSGGGGSMSGR chain 2: SANAGGGGSGGGGSQSVLTQPPSVSGAPGQRVTISCSGSRSNIGSNTVKWYQQLPGTAPKLLIYYNDQRPSGVPDRFSGSKSGTSASLAITGLQAEDEADYYCQSYDRYTHPALLFGTGTKVTVL |
